Measurements as given in IntAct's records for PubMed 24793649.

B1: CRISPR-associated endonuclease Cas1 (Escherichia coli (strain K12)), Q46896 (parent)
chain: MTWLPLNPIPLKDRVSMIFLQYGQIDVIDGAFVLIDKTGIRTHIPVGSVACIMLEPGTRVSHAAVRLAAQVGTLLVWVGEAGVRVYASGQPGGARSDKLLYQAKLALDEDLRLKVVRKMFELRFGEPAPARRSVEQLRGIEGSRVRATYALLAKQYGVTWNGRRYDPKDWEKGDTINQCISAATSCLYGVTEAAILAAGYAPAIGFVHTGKPLSFVYDIADIIKFDTVVPKAFEIARRNPGEPDREVRLACRDIFRSSKTLAKLIPLIEDVLAAGEIQPPAPPEDAQPVAIPLPVSLGDAGHRSS
partner: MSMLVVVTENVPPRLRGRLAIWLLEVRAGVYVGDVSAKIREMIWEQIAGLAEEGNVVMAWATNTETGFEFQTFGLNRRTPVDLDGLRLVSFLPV

Variants of: B1
Conditions: with cas2_ecoli ygbF

effect of a mutation on the interaction	Variant
disrupting interaction strength	R252E
